Measured values taken from patent US20180273595A1 (REGENTS OF THE UNIVERSITY OF MICHIGAN, published 2018).
Where no end group is shown, it is not given here. The star is where a group is joined. Biotin = O=C1N[C@H]2[C@H](CS[C@H]2CCCCC(=O)*)N1

Columns and labels:
[1] = biological target: T1, recombinant His-tagged full-length ERG (UniProt P11308 1-479, biotinylated with NHS-PEG4 biotin for the OctetRED assays); test: Kd table of synthetic peptides on ERG; assay not given
T1 construct: mature; Baculovirus expression in SF9 cells, Ni-NTA purified; also called wild-type ERG; wtERG; not shown: His tag
T1 sequence (looked up): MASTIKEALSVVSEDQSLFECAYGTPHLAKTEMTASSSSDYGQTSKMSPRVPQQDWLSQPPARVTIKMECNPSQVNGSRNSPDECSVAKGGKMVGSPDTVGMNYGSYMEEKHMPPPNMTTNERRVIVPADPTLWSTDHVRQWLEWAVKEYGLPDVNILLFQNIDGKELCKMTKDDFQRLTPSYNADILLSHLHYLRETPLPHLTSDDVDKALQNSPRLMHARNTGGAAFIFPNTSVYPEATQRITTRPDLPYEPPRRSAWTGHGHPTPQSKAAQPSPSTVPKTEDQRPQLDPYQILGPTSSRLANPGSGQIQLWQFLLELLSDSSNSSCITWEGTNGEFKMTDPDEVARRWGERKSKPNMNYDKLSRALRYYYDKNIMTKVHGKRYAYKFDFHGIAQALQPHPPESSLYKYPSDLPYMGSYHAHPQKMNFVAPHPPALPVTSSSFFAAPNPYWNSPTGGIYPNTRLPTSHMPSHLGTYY

[2] = biological target: T1, recombinant His-tagged full-length ERG; test: binding assay of capped EIP1 variants (FIG. 13); capped EIP1, Y4K
[3] = biological target: T2, Halo-tagged full-length ETV6 (UniProt P41212 1-452); test: pull-down of in vitro translated Halo-tagged protein with biotinylated peptide, anti-Halo immunoblot [cont'd]
T2 construct: mature; not shown: Halo-tag at the N-terminus
T2 sequence (looked up): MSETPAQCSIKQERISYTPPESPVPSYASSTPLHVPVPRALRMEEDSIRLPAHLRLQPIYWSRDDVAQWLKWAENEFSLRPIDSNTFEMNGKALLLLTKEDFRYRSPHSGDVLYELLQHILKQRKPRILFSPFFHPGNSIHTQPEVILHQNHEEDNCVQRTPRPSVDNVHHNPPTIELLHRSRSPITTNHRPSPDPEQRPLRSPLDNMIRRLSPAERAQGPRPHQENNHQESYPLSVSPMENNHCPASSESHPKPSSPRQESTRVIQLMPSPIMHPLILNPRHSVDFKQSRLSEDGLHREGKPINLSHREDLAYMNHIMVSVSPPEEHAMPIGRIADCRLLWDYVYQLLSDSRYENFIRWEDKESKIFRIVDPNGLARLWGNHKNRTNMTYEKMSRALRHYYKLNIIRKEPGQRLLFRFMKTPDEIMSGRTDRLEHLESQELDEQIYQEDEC

[4] = biological target: T3, Halo-tagged full-length ETV1 (UniProt P50549 1-477); test: as above
T3 construct: mature; not shown: Halo-tag at the N-terminus
T3 sequence (looked up): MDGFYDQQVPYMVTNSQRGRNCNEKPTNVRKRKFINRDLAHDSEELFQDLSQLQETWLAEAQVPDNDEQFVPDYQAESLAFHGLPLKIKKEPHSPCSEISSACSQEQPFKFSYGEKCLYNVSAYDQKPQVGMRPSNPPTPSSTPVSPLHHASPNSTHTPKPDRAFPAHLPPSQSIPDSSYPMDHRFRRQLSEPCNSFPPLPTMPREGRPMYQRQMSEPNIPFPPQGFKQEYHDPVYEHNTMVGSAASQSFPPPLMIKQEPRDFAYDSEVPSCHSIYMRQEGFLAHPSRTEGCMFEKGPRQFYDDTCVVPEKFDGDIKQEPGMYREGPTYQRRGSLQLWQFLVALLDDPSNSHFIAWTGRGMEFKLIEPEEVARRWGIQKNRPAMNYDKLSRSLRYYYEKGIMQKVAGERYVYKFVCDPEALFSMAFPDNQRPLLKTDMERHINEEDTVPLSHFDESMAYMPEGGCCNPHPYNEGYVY

[5] = biological target: T4, Halo-tagged full-length ERG (UniProt P11308 1-479); test: as above
T4 construct: mature; In vitro transcription/translation in wheat germ lysate; also called Halo-ERG fusion protein; not shown: HaloTag (about 35 kDa), N-terminal
T4 sequence (looked up): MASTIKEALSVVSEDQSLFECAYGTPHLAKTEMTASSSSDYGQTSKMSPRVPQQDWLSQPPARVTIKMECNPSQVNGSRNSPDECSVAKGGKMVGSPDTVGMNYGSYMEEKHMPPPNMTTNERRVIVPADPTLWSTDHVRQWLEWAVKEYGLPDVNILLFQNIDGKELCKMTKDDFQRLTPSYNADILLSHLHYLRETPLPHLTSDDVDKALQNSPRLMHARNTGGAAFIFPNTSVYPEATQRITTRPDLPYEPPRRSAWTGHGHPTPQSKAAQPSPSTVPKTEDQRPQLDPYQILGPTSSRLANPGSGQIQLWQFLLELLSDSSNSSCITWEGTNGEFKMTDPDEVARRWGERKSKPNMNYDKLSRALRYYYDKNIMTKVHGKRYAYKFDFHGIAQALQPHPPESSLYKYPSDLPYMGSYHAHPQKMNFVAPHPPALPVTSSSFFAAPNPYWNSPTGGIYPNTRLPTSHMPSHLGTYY

[6] = biological target: T5, Halo-tagged full-length Fli1 (UniProt Q01543 1-452); test: as above
T5 construct: mature; not shown: Halo-tag at the N-terminus
T5 sequence (looked up): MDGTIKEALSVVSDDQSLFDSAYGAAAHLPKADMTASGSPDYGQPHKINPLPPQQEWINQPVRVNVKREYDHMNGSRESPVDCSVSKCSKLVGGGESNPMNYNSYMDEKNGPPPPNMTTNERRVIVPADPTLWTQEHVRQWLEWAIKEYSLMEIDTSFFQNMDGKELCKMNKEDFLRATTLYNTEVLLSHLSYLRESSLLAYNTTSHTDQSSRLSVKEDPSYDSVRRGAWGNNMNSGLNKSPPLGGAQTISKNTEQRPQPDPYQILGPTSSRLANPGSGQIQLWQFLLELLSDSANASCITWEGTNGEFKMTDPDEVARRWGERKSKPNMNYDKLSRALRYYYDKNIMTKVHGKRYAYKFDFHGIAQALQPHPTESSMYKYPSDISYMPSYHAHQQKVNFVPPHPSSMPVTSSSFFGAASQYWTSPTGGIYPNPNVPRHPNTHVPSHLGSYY

[7] = biological target: T6, Halo-tagged full-length ETS1 (UniProt P14921 1-441); test: as above
T6 construct: mature; not shown: Halo-tag at the N-terminus
T6 sequence (looked up): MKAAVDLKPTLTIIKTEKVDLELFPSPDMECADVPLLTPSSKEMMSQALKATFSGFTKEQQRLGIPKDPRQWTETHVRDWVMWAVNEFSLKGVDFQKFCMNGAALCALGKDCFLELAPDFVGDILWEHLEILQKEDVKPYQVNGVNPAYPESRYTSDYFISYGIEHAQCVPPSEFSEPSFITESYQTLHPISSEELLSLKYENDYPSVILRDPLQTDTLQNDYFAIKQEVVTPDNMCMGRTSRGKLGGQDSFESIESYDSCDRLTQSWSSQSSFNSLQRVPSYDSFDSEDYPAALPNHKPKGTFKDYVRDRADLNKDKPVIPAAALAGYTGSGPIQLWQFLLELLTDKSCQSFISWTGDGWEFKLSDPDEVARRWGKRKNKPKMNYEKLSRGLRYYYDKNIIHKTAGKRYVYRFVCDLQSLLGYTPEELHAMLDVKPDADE

[8] = biological target: T7, ERG_Y373A (purified recombinant ERG with Y373A) (UniProt P11308 1-479, limits assumed, biotinylated for OctetRED); test: pull-down of purified recombinant proteins with biotin peptide
T7 construct: also called Y373A mutation
T7 sequence (looked up): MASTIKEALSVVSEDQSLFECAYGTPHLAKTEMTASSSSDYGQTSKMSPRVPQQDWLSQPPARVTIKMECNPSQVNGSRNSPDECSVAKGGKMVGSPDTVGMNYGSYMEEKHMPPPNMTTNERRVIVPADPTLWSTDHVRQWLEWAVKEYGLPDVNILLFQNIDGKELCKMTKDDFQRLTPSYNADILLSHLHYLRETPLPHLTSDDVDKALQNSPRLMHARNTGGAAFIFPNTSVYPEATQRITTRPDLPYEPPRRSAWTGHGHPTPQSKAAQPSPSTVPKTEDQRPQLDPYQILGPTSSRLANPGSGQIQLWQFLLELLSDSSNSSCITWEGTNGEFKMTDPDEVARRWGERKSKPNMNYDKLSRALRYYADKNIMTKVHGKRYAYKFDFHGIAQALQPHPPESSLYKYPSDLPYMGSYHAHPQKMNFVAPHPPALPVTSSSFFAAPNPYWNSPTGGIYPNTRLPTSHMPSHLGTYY

[9] = biological target: T1, recombinant His-tagged full-length ERG; test: pull-down of purified recombinant protein with biotinylated peptide, immunoblot
[10] = biological target: T8, endogenous ETV1 protein of LNCaP cells (UniProt P50549 1-477, limits assumed); test: pull-down of cell lysate with biotinylated peptide, immunoblot αETV1
T8 sequence (looked up): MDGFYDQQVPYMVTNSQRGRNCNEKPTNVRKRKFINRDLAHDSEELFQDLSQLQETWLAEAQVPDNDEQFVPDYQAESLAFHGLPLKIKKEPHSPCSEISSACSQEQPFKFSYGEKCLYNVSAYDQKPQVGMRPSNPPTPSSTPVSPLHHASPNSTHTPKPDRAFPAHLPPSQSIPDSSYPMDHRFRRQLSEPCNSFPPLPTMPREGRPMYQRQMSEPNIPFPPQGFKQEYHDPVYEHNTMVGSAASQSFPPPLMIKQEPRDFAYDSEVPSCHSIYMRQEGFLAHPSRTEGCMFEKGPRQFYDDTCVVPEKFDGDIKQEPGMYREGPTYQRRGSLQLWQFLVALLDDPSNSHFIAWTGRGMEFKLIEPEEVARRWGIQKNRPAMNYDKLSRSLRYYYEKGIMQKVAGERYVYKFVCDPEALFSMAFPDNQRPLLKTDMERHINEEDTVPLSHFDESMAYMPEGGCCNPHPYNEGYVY

[11] = biological target: T9, wild-type ERG endogenous in MS1 mouse endothelial cells (mouse, UniProt P81270 1-486, limits assumed); test: pull-down of whole cell lysate with biotinylated peptide, WB: αERG
T9 construct: also called mERG; MS1 ERG
T9 sequence (looked up): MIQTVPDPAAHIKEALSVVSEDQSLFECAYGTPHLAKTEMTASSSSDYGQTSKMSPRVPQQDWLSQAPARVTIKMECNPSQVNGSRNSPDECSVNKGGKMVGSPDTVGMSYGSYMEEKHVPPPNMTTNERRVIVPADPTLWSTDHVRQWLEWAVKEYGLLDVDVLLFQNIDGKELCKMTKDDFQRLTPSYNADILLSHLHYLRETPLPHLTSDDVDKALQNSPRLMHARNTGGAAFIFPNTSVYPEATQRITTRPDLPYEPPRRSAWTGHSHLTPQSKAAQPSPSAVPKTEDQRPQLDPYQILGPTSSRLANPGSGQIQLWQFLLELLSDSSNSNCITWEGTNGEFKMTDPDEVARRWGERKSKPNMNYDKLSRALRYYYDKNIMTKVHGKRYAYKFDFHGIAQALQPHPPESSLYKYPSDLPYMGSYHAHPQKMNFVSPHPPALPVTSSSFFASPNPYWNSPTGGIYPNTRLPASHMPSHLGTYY

[12] = biological target: T10, wild-type ERG endogenous in HUVEC cells (human, UniProt P11308 1-479, limits assumed); test: as above
T10 construct: also called HUVEC ERG
T10 sequence (looked up): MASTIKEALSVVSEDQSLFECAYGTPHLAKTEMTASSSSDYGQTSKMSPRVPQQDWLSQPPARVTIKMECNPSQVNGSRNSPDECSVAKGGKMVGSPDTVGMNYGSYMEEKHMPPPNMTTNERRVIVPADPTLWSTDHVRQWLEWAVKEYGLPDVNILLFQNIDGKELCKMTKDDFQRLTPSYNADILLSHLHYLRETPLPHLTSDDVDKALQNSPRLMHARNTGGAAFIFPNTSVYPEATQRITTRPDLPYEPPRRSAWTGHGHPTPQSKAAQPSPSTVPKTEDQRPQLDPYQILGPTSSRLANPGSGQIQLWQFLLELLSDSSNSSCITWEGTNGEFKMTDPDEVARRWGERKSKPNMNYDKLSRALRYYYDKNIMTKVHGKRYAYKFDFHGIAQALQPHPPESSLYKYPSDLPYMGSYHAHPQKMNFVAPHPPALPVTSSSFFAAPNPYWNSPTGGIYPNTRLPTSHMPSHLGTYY

[13] = biological target: T11, TMPRSS2:ERG gene fusion product, endogenous in VCaP cells (UniProt P11308 33-479, limits assumed); test: pull-down of VCaP lysate with biotinylated peptide, ERG immunoblot
T11 construct: In cell lysates, in cells or in xenograft tumors; also called endogenous ERG; VCaP ERG
T11 sequence (looked up): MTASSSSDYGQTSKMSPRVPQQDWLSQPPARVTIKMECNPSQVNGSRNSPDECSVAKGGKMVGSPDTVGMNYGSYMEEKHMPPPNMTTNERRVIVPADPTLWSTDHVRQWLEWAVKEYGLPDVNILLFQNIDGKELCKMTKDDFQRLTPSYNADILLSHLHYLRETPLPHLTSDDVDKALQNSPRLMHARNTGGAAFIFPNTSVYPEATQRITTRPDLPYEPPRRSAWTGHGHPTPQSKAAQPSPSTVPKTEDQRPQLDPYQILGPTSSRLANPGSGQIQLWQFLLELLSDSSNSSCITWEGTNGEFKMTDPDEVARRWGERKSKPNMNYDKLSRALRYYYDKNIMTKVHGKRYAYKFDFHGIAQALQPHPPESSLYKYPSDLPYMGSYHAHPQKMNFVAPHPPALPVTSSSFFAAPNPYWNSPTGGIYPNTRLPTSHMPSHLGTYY

Ac-LPPKLFT-NH2 [capped EIP1 with Y at position four mutated to K] gave a Kd [1] of 4.27 µM and a Kd [2] of 4.3 µM.

B1: Biotin-HSKINPT (peptide)
peptide: Biotin-HSKINPT
notes: Control of the pull-down with Biotin-LSFGSLP; also called control peptide Biotin-HSKINPT
B1: no binding [3]; no binding [4]; no binding [5]. B1: no binding [6]; no binding [7].

B2: biotinylated EIP1 peptide (Biotin-LPPYLFT) (peptide)
peptide: Biotin-LPPYLFT
notes: also called Biotin-EIP1; biotin-conjugated EIP1
B2: no binding [8].

LPPALFT (also: biotin, position not given here, also called biotin-muEIP1) [biotinylated muEIP1 peptide]: no binding [9]; no binding (tested: 50 µM) [10]; no binding [11]. LPPALFT (also: biotin, position not given here, also called biotin-muEIP1) [biotinylated muEIP1 peptide]: no binding [12]; no binding (tested: 20 µM) [13].
